Assay results as given in patent publication US20060233806A1 (JAPAN SCIENCE AND TECHNOLOGY AGENCY, published 2006).

Target: T1, mouse integrin αvβ3 on NIH3T3 cells (mouse, UniProt P43406 31-1044; O54890 26-787)
T1 construct: whole, on cells; Presented on NIH3T3 transformants; also called αvβ3 integrin; 3T3/αvβ3
Assay: cell adhesion assay on PS-coated wells pretreated with D89E
Procedure: Peroxidase activity was detected using a peroxidase-detecting kit (Sumitomo Bakelite). To assay the ability of MFG-E8 to link the cells to phospholipids, MFG-E8 was bound to microtiter plates coated with phospholipids as described above. In tyrode buffer containing the cells (4×10⁴) (5 mM Hepes-NaOH buffer [pH 7.4], 135 mM NaCl, 5.4 mM KCl, 1.0 mM MgCl₂, 10 mM glucose, and 10 mg/ml BSA) was added to each well, and incubated at room temperature for 1 hour. The cells that had adhered to the plates were quantified by a CyQUANT Cell Proliferation Assay kit (Molecular Probes) using a fluorescent microplate reader (BioLumin 960, Molecular Dynamics) set at excitation wavelength of 485 nm and emission wavelength of 520 nm.
Therefore, the possibility that MFG-E8-L might bind to integrin-expressing cells after said cells are bound to phospholipids was investigated. Microtiter wells coated with PS or PE were successively incubated with three different concentrations (0.1, 1.0 and 2.0 μg/ml) of MFG-E8-L or D89E, and with NIH3T3 (3T3/WT) or αᵥβ₃ integrin-expressing transformants (3T3/αᵥβ₃), and subjected to cell adhesion assay. The number of cells attached to the wells was quantified as described in the methods described in Example A-6. […] D89E mutant was not capable of intermediating the adhering of NIH3T3 cells to the wells coated with PS. […]

T1 sequence (P43406 31-1044, chain 1 of 2): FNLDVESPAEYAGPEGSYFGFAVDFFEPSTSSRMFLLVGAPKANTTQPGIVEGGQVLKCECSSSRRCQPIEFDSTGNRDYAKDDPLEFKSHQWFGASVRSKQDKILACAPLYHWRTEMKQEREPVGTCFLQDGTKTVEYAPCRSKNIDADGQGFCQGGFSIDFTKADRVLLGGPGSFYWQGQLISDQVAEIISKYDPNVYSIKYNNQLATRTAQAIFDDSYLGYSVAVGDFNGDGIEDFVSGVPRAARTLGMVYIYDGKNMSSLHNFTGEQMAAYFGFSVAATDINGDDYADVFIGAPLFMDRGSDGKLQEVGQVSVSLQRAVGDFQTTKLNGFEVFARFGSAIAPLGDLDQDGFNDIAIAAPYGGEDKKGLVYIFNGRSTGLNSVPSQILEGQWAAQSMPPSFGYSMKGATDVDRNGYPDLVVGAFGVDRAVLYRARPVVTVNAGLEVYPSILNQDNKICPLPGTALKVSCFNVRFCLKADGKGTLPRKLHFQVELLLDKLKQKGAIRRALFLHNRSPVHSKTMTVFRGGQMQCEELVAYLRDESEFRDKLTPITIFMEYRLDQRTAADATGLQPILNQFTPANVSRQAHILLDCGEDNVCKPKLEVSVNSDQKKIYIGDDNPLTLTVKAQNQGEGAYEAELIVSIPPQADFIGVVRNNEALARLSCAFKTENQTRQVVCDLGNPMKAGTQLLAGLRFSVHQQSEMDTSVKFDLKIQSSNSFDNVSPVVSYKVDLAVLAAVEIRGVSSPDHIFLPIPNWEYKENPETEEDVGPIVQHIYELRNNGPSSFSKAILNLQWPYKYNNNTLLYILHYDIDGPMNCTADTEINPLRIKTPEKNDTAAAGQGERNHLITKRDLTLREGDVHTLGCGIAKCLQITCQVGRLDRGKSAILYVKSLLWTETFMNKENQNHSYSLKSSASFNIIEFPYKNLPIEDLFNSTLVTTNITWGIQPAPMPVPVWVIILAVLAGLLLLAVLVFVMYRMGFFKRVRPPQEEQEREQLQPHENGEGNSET
T1 sequence (O54890 26-787, chain 2 of 2): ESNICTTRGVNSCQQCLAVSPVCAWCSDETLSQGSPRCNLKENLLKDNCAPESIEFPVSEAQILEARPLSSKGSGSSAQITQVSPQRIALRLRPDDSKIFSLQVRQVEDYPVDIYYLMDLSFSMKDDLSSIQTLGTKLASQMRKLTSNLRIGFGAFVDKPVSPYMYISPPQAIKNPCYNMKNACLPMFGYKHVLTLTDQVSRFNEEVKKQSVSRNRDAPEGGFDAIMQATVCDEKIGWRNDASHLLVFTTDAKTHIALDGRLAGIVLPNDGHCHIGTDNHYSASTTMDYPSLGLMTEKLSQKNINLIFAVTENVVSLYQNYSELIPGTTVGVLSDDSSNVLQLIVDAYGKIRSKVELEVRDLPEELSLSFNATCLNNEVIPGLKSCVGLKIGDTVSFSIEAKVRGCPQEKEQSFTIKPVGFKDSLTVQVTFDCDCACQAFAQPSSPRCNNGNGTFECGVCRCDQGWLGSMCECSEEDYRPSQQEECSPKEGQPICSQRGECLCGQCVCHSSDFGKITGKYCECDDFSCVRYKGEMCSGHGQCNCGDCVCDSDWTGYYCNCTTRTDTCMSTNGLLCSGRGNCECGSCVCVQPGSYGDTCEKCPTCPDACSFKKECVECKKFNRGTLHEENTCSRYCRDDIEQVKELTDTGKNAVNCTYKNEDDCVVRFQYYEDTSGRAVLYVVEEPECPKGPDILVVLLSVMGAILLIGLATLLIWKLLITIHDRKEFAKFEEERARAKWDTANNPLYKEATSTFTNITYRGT

B1: D89E mutant of mouse MFG-E8-L (ligand)
chain: ASGDFCDSSLCLNGGTCLTGQDNDIYCLCPEGFTGLVCNETERGPCSPNPCYNDAKCLVTLDTQRGEIFTEYICQCPVGYSGIHCETETNYYNLDGEYMFTTAVPNTAVPTPAPTPDLSNNLASRCSTQLGMEGGAIADSQISASSVYMGFMGLQRWGPELARLYRTGIVNAWTASNYDSKPWIQVNLLRKMRVSGVMTQGASRAGRAEYLKTFKVAYSLDGRKFEFIQDESGGDKEFLGNLDNNSLKVNMFNPTLEAQYIRLYPVSCHRGCTLRFELLGCELHGCSEPLGLKNNTIPDSQMSASSSYKTWNLRAFGWYPHLGRLDNQGKINAWTAQSNSAKEWLQVDLGTQRQVTGIITQGARDFGHIQYVASYKVAHSDDGVQWTVYEEQGSSKVFQGNLDNNSHKKNIFEKPFMARYVRVLPVSWHNRITLRLELLGC
notes: Point mutation in the RGD motif of the second EGF domain; Expressed in human 293T cells; also called D89 mutant; not shown: FLAG marker peptide at the C-terminus (derivatives were detected with anti-FLAG)
binding result: no binding (tested: 0.1, 1.0 and 2.0 µg/ml)
